Reference: patent US20250127885A1
pEC50, pKd: −log10 of the molar value.

How the values were obtained:
[1] = biological target: HCMV viral Fcγ receptors (vFcγRs) on AD169-infected cells; assay: cell-based or functional assay
[2] = biological target: HCMV viral Fcγ receptors (vFcγRs) on AD169-infected cells; assay: flow cytometry on AD169-infected fibroblasts, 67 nM antibody
[3] = biological target: HCMV glycoprotein B (gB) on HCMV-infected MRC5 fibroblasts (human cytomegalovirus (HCMV), strain AD169) (UniProt P06473); assay: as above
[4] = biological target: HCMV glycoprotein B (gB) on HCMV-infected MRC5 fibroblasts (human cytomegalovirus (HCMV), strain AD169) (UniProt P06473); assay: flow cytometry on AD169-infected fibroblasts, 67 nM antibody with soluble gp34-M (100 nM) and/or t-gp68 (2000 nM)
[5] = biological target: HCMV glycoprotein B (gB) on HCMV-infected MRC5 fibroblasts (human cytomegalovirus (HCMV), strain AD169) (UniProt P06473); assay: flow cytometry, 67 nM antibody on AD169-infected fibroblasts, anti-huFc detection (vFcγRs also present)
[6] = biological target: human CD16A ectodomain fused to mouse CD3 zeta, on BW5147 reporter cells (human; mouse) (UniProt P08637); assay: cell-based or functional assay
human CD16A ectodomain fused to mouse CD3 zeta, on BW5147 reporter cells (human; mouse), sequence (P08637 other isoform, or with tags, fused parts or gaps limits assumed): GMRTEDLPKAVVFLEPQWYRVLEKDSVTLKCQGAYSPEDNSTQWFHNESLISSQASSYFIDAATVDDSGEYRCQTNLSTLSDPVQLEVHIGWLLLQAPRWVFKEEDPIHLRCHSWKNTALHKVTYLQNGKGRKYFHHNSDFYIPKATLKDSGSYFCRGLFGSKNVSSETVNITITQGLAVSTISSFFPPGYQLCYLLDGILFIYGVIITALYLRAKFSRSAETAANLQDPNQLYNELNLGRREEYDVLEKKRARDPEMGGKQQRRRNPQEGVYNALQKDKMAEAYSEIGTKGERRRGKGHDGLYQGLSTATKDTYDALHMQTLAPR

[7] = biological target: HCMV glycoprotein B (gB) on HCMV-infected MRC5 fibroblasts (human cytomegalovirus (HCMV), strain AD169) (UniProt P06473); assay: flow cytometry on AD169-infected fibroblasts, 67 nM antibody; gB and vFcγRs both capture
[8] = biological target: soluble truncated HCMV gp68 ectodomain (t-gp68) (human cytomegalovirus (HCMV)) (UniProt F5HC14); assay: ELISA, gB coated at 2 ug/mL, antibody 100 ug/mL, Gp68 diluted from 50 ug/mL, anti-flag-M2-HRP 1/1000 (table on the sheet)
[9] = biological target: HCMV glycoprotein B (gB) on HCMV-infected MRC5 fibroblasts (human cytomegalovirus (HCMV), strain AD169) (UniProt P06473); assay: flow cytometry on AD169-infected MRC5 cells, anti-human Fcγ-AF647
[10] = biological target: soluble HCMV gp34 ectodomain with C150S (gp34-M) (human cytomegalovirus (HCMV), strain AD169) (UniProt P16809); assay: ELISA, gB coated at 2 ug/mL, antibody 100 ug/mL, Gp34 diluted from 50 ug/mL, anti-flag-M2-HRP 1/1000 (table on the sheet)
[11] = biological target: HCMV glycoprotein B (gB) on HCMV-infected MRC5 fibroblasts (human cytomegalovirus (HCMV), strain AD169) (UniProt P06473); assay: flow cytometry, 67 nM antibody on ΔΔΔ-infected fibroblasts (vFcγRs deleted), anti-huFc detection
[12] = biological target: human CD16A F158 allotype (human) (UniProt P08637); assay: BLI (Octet RED96e), steady state; hu4D5 variant on FAB2G tips, CD16A F158 5000-156.25 nM, pH 7.4
human CD16A F158 allotype (human), sequence (P08637 17-208 limits assumed): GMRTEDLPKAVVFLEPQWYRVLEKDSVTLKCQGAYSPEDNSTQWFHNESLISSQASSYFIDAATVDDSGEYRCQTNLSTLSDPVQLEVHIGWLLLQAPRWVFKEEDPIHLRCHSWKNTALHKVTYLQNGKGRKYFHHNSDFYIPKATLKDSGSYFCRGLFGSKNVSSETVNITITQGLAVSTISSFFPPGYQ

[13] = biological target: soluble truncated HCMV gp68 ectodomain (t-gp68) (human cytomegalovirus (HCMV)) (UniProt F5HC14); assay: SPR (Biacore X100), kinetic KD; t-gp68 captured by anti-strep Fab on CM5, hu4D5 Fc variant injected; 2:1 fit, first kinetic constants
[14] = biological target: soluble HCMV gp34 ectodomain with C150S (gp34-M) (human cytomegalovirus (HCMV), strain AD169) (UniProt P16809); assay: SPR (Biacore X100), kinetic KD; gp34-M captured by anti-strep Fab on CM5, hu4D5 Fc variant injected; 1:1 fit
[15] = biological target: biotinylated FcRn (Acro Biosystems) (UniProt P55899); assay: BLI (Octet RED96e), steady state; biotinylated FcRn on SA tips, hu4D5 Fc variant 1000-31.25 nM, pH 6.0
biotinylated FcRn (Acro Biosystems), sequence (P55899 24-297 limits assumed, chain 1 of 2): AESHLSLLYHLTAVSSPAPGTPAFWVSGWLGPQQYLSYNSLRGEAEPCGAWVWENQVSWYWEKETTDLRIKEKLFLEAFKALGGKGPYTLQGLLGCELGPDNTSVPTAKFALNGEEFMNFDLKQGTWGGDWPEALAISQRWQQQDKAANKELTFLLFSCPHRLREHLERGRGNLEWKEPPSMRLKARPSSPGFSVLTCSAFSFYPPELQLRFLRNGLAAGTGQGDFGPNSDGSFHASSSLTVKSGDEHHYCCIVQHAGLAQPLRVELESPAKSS
biotinylated FcRn (Acro Biosystems), sequence (chain, as listed by the source limits assumed, chain 2 of 2): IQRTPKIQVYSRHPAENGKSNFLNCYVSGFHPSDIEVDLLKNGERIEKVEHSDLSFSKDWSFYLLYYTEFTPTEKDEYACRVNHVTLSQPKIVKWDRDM

[16] = biological target: soluble truncated HCMV gp68 ectodomain (t-gp68) (human cytomegalovirus (HCMV)) (UniProt F5HC14); assay: SPR (Biacore X100), equilibrium (steady state) KD; t-gp68 captured by anti-strep Fab, hu4D5 Fc variant injected
[17] = biological target: HCMV gp34 ectodomain displayed on ExpiCHO cells (human cytomegalovirus (HCMV)) (UniProt P16809); assay: flow cytometry, ExpiCHO cells displaying the ectodomain, goat anti-Fc gamma-AF647, 4PL fit; EC50 unit inferred, x axis IgG (nM)
[18] = biological target: HCMV AD169 gpRL12 ectodomain displayed on ExpiCHO cells (human cytomegalovirus (HCMV), strain AD169) (UniProt P16810); assay: as above
[19] = biological target: HCMV Merlin gpRL13 ectodomain displayed on ExpiCHO cells (human cytomegalovirus (HCMV), strain Merlin) (UniProt Q6SWC9); assay: flow cytometry, ExpiCHO cells displaying the ectodomain, hu4D5 Fc variant titrated, goat anti-Fc gamma-AF647
[20] = biological target: HCMV Merlin gpRL13 ectodomain displayed on ExpiCHO cells (human cytomegalovirus (HCMV), strain Merlin) (UniProt Q6SWC9); assay: flow cytometry, ExpiCHO cells displaying the ectodomain, goat anti-Fc gamma-AF647, 4PL fit; EC50 unit inferred, x axis IgG (nM)
[21] = biological target: HCMV Merlin gpRL12 ectodomain displayed on ExpiCHO cells (human cytomegalovirus (HCMV), strain Merlin) (UniProt Q6SWD0); assay: as above
[22] = biological target: HCMV gp68 ectodomain displayed on ExpiCHO cells (human cytomegalovirus (HCMV)) (UniProt P16739); assay: as above
[23] = biological target: HCMV viral Fcγ receptors (vFcγRs) on AD169-infected cells; assay: flow cytometry, 67 nM antibody on AD169-infected fibroblasts, anti-huFc detection

2B1 control antibody with human IgG1 Fc and an irrelevant Fab
internalization by AD169-infected MRC5 (pHrodo, %) [1]: 20% | internalization in the presence of soluble gp34-M, t-gp68, or both (%) [1]: 0 to 5% | percent of cells bound [2]: 40%

2B1 control antibody with mouse IgG2a Fc and an irrelevant Fab
percent of cells bound [2]: 5%

SM5-1 (anti-gB) with mouse IgG2a Fc (antibody)
percent of cells bound [3]: 60%

SM5-1 (anti-gB) with wild-type human IgG1 Fc (antibody)
percent of cells bound [4]: 60% | percent of cells stained [5]: 80% | CD16A activation, EC50 (mIL-2 of BW-CD16A-ζ reporter cells), AD169-infected MRC5 [6]: 12.8 pg/mL | CD16A activation, EC50 (mIL-2 of BW-CD16A-ζ reporter cells), ΔΔΔ-infected MRC5 [6]: 0.63 pg/mL | NK-92 V158 degranulation (CD107a, % cells), AD169/GFP-infected MRC5, 20 µg/ml [1]: 5% | internalization by AD169-infected MRC5 (pHrodo, %) [1]: 37% | internalization by AD169-infected MRC5 cells (%) [1]: 35% | internalization by AD169-infected cells (pHrodo, %) [1]: 50% | internalization by ΔΔΔ-infected cells (vFcγRs deleted; pHrodo, %) [1]: 7% | internalization in the presence of soluble gp34-M, t-gp68, or both (%) [1]: 0 to 5% | percent of cells bound [7]: 75% | EC50 (read off the curve) [8]: 0.4 µg/mL | percent of cells stained [9]: 70% | EC50 (read off the curve) [10]: 0.2 µg/mL | percent of cells stained [11]: 80%

hu4D5 antibody with G2 Fc (R255Q, H268L, E294K, Q311L, K334E)
pKd [12]: 6.00 | pKd [13]: 5.32 | pKd [14]: 6.49 | pKd [15]: 7.30 | pKd [16]: 5.74 | pEC50 [17]: 6.39 | pEC50 [18]: 7.09 | EC50 (read off the curve) [19]: 30 nM

hu4D5 antibody with G5 Fc (R255Q, S337F)
pKd [12]: 6.00 | pKd [13]: 5.68 | pKd [14]: 7.48 | pKd [15]: 7.05 | pKd [16]: 6.07 | pEC50 [17]: 6.39 | pEC50 [18]: 7.40 | pEC50 [20]: 6.64 | pEC50 [21]: 7.82

hu4D5 antibody with wild-type human IgG1 Fc
pKd [12]: 6.00 | pKd [13]: 7.16 | pKd [14]: 8.14 | pKd [15]: 7.22 | pKd [16]: 7.10 | pEC50 [17]: 7.40 | pEC50 [18]: 7.13 | pEC50 [20]: 7.26 | pEC50 [22]: 7.92 | pEC50 [21]: 7.70

human IgG1 isotype control antibody
internalization by AD169-infected cells (pHrodo, %) [1]: 10% | percent of cells stained [23]: 35%
